Measurements: patent US20210309732A1 (ELIXIRON IMMUNOTHERAPEUTICS HONG KONG, published 2021)
Read-outs that look alike come from different tables or passages of the source.

Tests used:
[1] = target: recombinant human IL-3 (human) (UniProt P08700); assay: cell-based or functional assay
[2] = target: recombinant human GM-CSF (human) (UniProt P04141); assay: cell-based or functional assay
[3] = target: recombinant human GM-CSF (human) (UniProt P04141); assay: SPR Biacore 3000, antibody captured by goat anti-human IgG, rhGM-CSF injected
[4] = target: recombinant human GM-CSF (human) (UniProt P04141); assay: ELISA, GM-CSF coated on the plate, anti-human kappa light chain-HRP, OD 450 nm
rhesus GM-CSF (rhesus) = rhesus GM-CSF (rhesus) (UniProt Q9GL44); assay: as above
recombinant human GM-CSF [5] = target: T1, recombinant human GM-CSF (human, UniProt P04141 18-144); assay: Biacore
T1 construct: also called rhGM-CSF; CSF2

recombinant human GM-CSF [6] = target: T1, recombinant human GM-CSF; assay: cell-based or functional assay
recombinant human GM-CSF [7] = target: T1, recombinant human GM-CSF; assay: ELISA on coated rhGM-CSF, UBA relative to 1D2
How it was run: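 Antibody clones carrying SDR point mutants in VH or VL, each paired with the wild-type chain, were expressed in HEK293 cells. Culture media diluted 1:12000 were bound to plates coated with rhGM-CSF at 1 μg/mL for 1 h at room temperature. Detection used HRP anti-human antibody and Amplex Red fluorescence (Ex530/Em590), with UBA = fluorescence signal/dilution factor.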

recombinant human GM-CSF [8] = target: T1, recombinant human GM-CSF; assay: cell-based or functional assay; remark: listed apart in the source
recombinant human GM-CSF [9] = target: T1, recombinant human GM-CSF; assay: Biacore; remark: listed apart in the source
recombinant human GM-CSF [10] = target: T1, recombinant human GM-CSF; assay: ELISA, human GM-CSF coated on the plate, anti-human kappa light chain-HRP, OD 450 nm
Procedure: (§1) Human and mouse GM-CSF have about 56% homology and are species specific. Rhesus and GM-CSF has 96.5% homologous to human GM-CSF (Hutchinson et al, J Med Virol 2001, 65:561-565, Genbank accession number AY007376). […] ELISA was performed as followed. Briefly, GM-CSF proteins were coated on the ELISA absorbing plates, then blocked by 1% BSA in PBS. […] After incubation, the plates were washed three times with TBST and incubated with anti-human kappa light chain conjugated HRP secondary antibodies. Plates were washed three times, TMB peroxidase substrate was added and reactions were stopped by adding 1 N sulfuric acid.

rhesus GM-CSF = rhesus GM-CSF (rhesus, UniProt Q9GL44 18-144); assay: ELISA, rhesus GM-CSF coated on the plate, anti-human kappa light chain-HRP, OD 450 nm
Procedure: as §1

recombinant human GM-CSF [11] = target: T1, recombinant human GM-CSF; assay: Biacore; remark: listed apart in the source
recombinant human GM-CSF [12] = target: T1, recombinant human GM-CSF; assay: Gator, Coating Ab
recombinant human GM-CSF [13] = target: T1, recombinant human GM-CSF; assay: Gator, Coating Ag
recombinant human GM-CSF [14] = target: T1, recombinant human GM-CSF; assay: Gator (pro), Coating Ag

T1 sequence (P04141 18-144 limits assumed): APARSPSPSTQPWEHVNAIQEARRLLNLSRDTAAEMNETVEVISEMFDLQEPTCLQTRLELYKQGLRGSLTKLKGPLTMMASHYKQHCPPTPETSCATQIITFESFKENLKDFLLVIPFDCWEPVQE
recombinant human GM-CSF (human), sequence (P04141 18-144 limits assumed): as above
rhesus GM-CSF, sequence (Q9GL44 entry or part of it limits assumed): as the sequence (P04141 18-144 limits assumed) above, with S9G, E38K, I43V, T53S, R67Q, E104Q counted along it
recombinant human IL-3 (human), sequence (P08700 20-152 limits assumed): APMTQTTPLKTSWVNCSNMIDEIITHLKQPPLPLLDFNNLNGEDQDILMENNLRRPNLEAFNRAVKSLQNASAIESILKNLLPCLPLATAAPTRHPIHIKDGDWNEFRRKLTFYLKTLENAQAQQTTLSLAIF
rhesus GM-CSF (rhesus), sequence (Q9GL44 entry or part of it limits assumed): as the sequence (P04141 18-144 limits assumed) above, with S9G, E38K, I43V, T53S, R67Q, E104Q counted along it

| Ka (recombinant human GM-CSF [5]) [M⁻¹] | Kd (recombinant human GM-CSF [5]) [pM] | koff (recombinant human GM-CSF [5]) [s⁻¹] | kon (recombinant human GM-CSF [5]) [M⁻¹ s⁻¹] | IC50 (M), inhibition of GM-CSF induced TF-1 cell proliferation (FIG. 5B) (recombinant human GM-CSF [6]) [M] | binding affinity % of 1D2 (recombinant human GM-CSF [7]) [%] | Molecule | further results |
| --- | --- | --- | --- | --- | --- | --- | --- |
| – | – | – | – | – | – | MOR103 (otilimab) (antibody) | Mean Fluorescence Intensity of phospho-STAT5 (pY694) in human PBMCs stimulated with 10 ng/mL rhIL-3, 2 ug/mL antibody (no antibody: 102) [1]: 106 MFI |
| – | – | – | – | – | – | AMG203 (namilumab) (antibody, INN chains, looked up, human IgG1, V domains shown, IgG1 kappa) VH: QVQLVQSGAEVKKPGASVKVSCKAFGYPFTDYLLHWVRQAPGQGLEWVGWLNPYSGDTNYAQKFQGRVTMTRDTSISTAYMELSRLRSDDTAVYYCTRTTLISVYFDYWGQGTMVTVSS VL: DIQMTQSPSSVSASVGDRVTIACRASQNIRNILNWYQQRPGKAPQLLIYAASNLQSGVPSRFSGSGSGTDFTLTINSLQPEDFATYYCQQSYSMPRTFGGGTKLEIK | Mean Fluorescence Intensity of phospho-STAT5 (pY694) in human PBMCs stimulated with 10 ng/mL rhGM-CSF, 2 ug/mL antibody (no antibody: 122.0) [2]: 42.6 MFI; Mean Fluorescence Intensity of phospho-STAT5 (pY694) in human PBMCs stimulated with 10 ng/mL rhIL-3, 2 ug/mL antibody (no antibody: 102) [1]: 104 MFI; Kd [3]: 620 pM; koff [3]: 4.77e-05 s⁻¹; kon [3]: 296000 M⁻¹ s⁻¹; EC50 (read off the curve) [4]: 50 pM; EC50 (read off the curve) (rhesus GM-CSF (rhesus)): 50 pM |
| 2.89e+09 | 346 | 0.000448 | 1.3e+06 | 1.87e-09 | 114 | 1D2 SDR mutant HK54G (antibody, IgG1, V domains shown, also called X3 G) VH: QVQLVQSGAEVKKPGASVKVSCEASGYTFTDKYLHWVRQAPGQGLEWMAWINPGSGGTFYAQNFKGRVTVTRDTSINTAYLELTSLRLDDTSTYYCARGRDYYDQGAADLWGQGTMVTVSS VL: DIQLTQSPSSLSASVGDRVTITCRASQGINSVLAWYQQKPGKAPKLLLYAASKLESGVPSRFSGSGSGTDYTLTISSLQPEDFGTYYCQQYYSPVRTFGQGTKVEIKR | – |
| – | – | – | – | – | – | 1D2-D89E (ED) (antibody, IgG1, V domains shown, also called ID2-D89E (ED); ED mutant) VH: QVQLVQSGAEVKKPGASVKVSCEASGYTFTDKYLHWVRQAPGQGLEWMAWINPKSGGTFYAQNFKGRVTVTRDTSINTAYLELTSLRLEDTSTYYCARGRDYYDQGAADLWGQGTMVTVSS VL: DIQLTQSPSSLSASVGDRVTITCRASQGINSVLAWYQQKPGKAPKLLLYAASKLESGVPSRFSGSGSGTDYTLTISSLQPEDFGTYYCQQYYSPVRTFGQGTKVEIKR | IC50, inhibition of GM-CSF induced TF-1 cell proliferation (recombinant human GM-CSF [8]): 97.1 pM; IC50, inhibition of rhGM-CSF induced CCL17 secretion from PBMCs (recombinant human GM-CSF [8]): 54.3 pM; IC50, inhibition of rhGM-CSF induced IL-8 secretion in U937 cells (recombinant human GM-CSF [8]): 51 pM; Kd (recombinant human GM-CSF [9]): 73.2 pM; koff (recombinant human GM-CSF [9]): 0.000188 s⁻¹; kon (recombinant human GM-CSF [9]): 2.58e+06 M⁻¹ s⁻¹; EC50 (read off the curve) (recombinant human GM-CSF [10]): ~500 pM; EC50 (read off the curve) (rhesus GM-CSF): ~600 pM |
| 5.23e+08 | 1910 | 0.00197 | 1.03e+06 | 6.62e-09 | – | 1D2 SDR mutant K54G/V32R (antibody, IgG1, V domains shown, also called 54G/32R) VH: QVQLVQSGAEVKKPGASVKVSCEASGYTFTDKYLHWVRQAPGQGLEWMAWINPGSGGTFYAQNFKGRVTVTRDTSINTAYLELTSLRLDDTSTYYCARGRDYYDQGAADLWGQGTMVTVSS VL: DIQLTQSPSSLSASVGDRVTITCRASQGINSRLAWYQQKPGKAPKLLLYAASKLESGVPSRFSGSGSGTDYTLTISSLQPEDFGTYYCQQYYSPVRTFGQGTKVEIKR | Kd (recombinant human GM-CSF [11]): 1500 pM; Kd (recombinant human GM-CSF [12]): 929 pM; Kd (recombinant human GM-CSF [13]): 22.2 pM; Kd (recombinant human GM-CSF [14]): 0.746 pM |
| – | – | – | – | 1.49e-09 | 60 | 1D2 SDR mutant LP94N (antibody, IgG1, V domains shown, also called X9 N) VH: QVQLVQSGAEVKKPGASVKVSCEASGYTFTDKYLHWVRQAPGQGLEWMAWINPKSGGTFYAQNFKGRVTVTRDTSINTAYLELTSLRLDDTSTYYCARGRDYYDQGAADLWGQGTMVTVSS VL: DIQLTQSPSSLSASVGDRVTITCRASQGINSVLAWYQQKPGKAPKLLLYAASKLESGVPSRFSGSGSGTDYTLTISSLQPEDFGTYYCQQYYSNVRTFGQGTKVEIKR | – |
| 2.37e+08 | 4220 | 0.0027 | 640000 | ~6.83e-09 | – | 1D2 SDR mutant Y103N/V32R (antibody, IgG1, V domains shown) VH: QVQLVQSGAEVKKPGASVKVSCEASGYTFTDKYLHWVRQAPGQGLEWMAWINPKSGGTFYAQNFKGRVTVTRDTSINTAYLELTSLRLDDTSTYYCARGRDYNDQGAADLWGQGTMVTVSS VL: DIQLTQSPSSLSASVGDRVTITCRASQGINSRLAWYQQKPGKAPKLLLYAASKLESGVPSRFSGSGSGTDYTLTISSLQPEDFGTYYCQQYYSPVRTFGQGTKVEIKR | Kd (recombinant human GM-CSF [11]): 3360 pM; Kd (recombinant human GM-CSF [12]): 1440 pM; Kd (recombinant human GM-CSF [13]): 20.1 pM; Kd (recombinant human GM-CSF [14]): 5.84 pM |
| 2.42e+09 | 414 | 0.00057 | 1.38e+06 | 3.47e-09 | 115 | 1D2 SDR mutant HY103R (antibody, IgG1, V domains shown, also called X6 R) VH: QVQLVQSGAEVKKPGASVKVSCEASGYTFTDKYLHWVRQAPGQGLEWMAWINPKSGGTFYAQNFKGRVTVTRDTSINTAYLELTSLRLDDTSTYYCARGRDYRDQGAADLWGQGTMVTVSS VL: DIQLTQSPSSLSASVGDRVTITCRASQGINSVLAWYQQKPGKAPKLLLYAASKLESGVPSRFSGSGSGTDYTLTISSLQPEDFGTYYCQQYYSPVRTFGQGTKVEIKR | – |
| – | – | – | – | 2.48e-09 | 1030 | 1D2 SDR mutant LV32R (antibody, IgG1, V domains shown, also called X8 R) VH: QVQLVQSGAEVKKPGASVKVSCEASGYTFTDKYLHWVRQAPGQGLEWMAWINPKSGGTFYAQNFKGRVTVTRDTSINTAYLELTSLRLDDTSTYYCARGRDYYDQGAADLWGQGTMVTVSS VL: DIQLTQSPSSLSASVGDRVTITCRASQGINSRLAWYQQKPGKAPKLLLYAASKLESGVPSRFSGSGSGTDYTLTISSLQPEDFGTYYCQQYYSPVRTFGQGTKVEIKR | – |
| 2.5e+09 | 400 | 0.000669 | 1.67e+06 | 3.6e-09 | 130 | 1D2 SDR mutant HY103N (antibody, IgG1, V domains shown, also called X6 N) VH: QVQLVQSGAEVKKPGASVKVSCEASGYTFTDKYLHWVRQAPGQGLEWMAWINPKSGGTFYAQNFKGRVTVTRDTSINTAYLELTSLRLDDTSTYYCARGRDYNDQGAADLWGQGTMVTVSS VL: DIQLTQSPSSLSASVGDRVTITCRASQGINSVLAWYQQKPGKAPKLLLYAASKLESGVPSRFSGSGSGTDYTLTISSLQPEDFGTYYCQQYYSPVRTFGQGTKVEIKR | IC50 (M), inhibition of GM-CSF induced TF-1 cell proliferation (FIG. 5A) (recombinant human GM-CSF [6]): 3.41e-09 M |
| 4.14e+08 | 2420 | 0.00241 | 998000 | ~8.19e-09 | – | 1D2 SDR mutant Y103R/V32R (antibody, IgG1, V domains shown) VH: QVQLVQSGAEVKKPGASVKVSCEASGYTFTDKYLHWVRQAPGQGLEWMAWINPKSGGTFYAQNFKGRVTVTRDTSINTAYLELTSLRLDDTSTYYCARGRDYRDQGAADLWGQGTMVTVSS VL: DIQLTQSPSSLSASVGDRVTITCRASQGINSRLAWYQQKPGKAPKLLLYAASKLESGVPSRFSGSGSGTDYTLTISSLQPEDFGTYYCQQYYSPVRTFGQGTKVEIKR | Kd (recombinant human GM-CSF [11]): 7760 pM; Kd (recombinant human GM-CSF [12]): 4140 pM; Kd (recombinant human GM-CSF [13]): 30.9 pM; Kd (recombinant human GM-CSF [14]): 2.8 pM |
| – | – | – | – | – | – | 1D2-D90E (DE) (antibody, IgG1, V domains shown, also called ID2-D90E (DE); DE mutant) VH: QVQLVQSGAEVKKPGASVKVSCEASGYTFTDKYLHWVRQAPGQGLEWMAWINPKSGGTFYAQNFKGRVTVTRDTSINTAYLELTSLRLDETSTYYCARGRDYYDQGAADLWGQGTMVTVSS VL: DIQLTQSPSSLSASVGDRVTITCRASQGINSVLAWYQQKPGKAPKLLLYAASKLESGVPSRFSGSGSGTDYTLTISSLQPEDFGTYYCQQYYSPVRTFGQGTKVEIKR | IC50, inhibition of GM-CSF induced TF-1 cell proliferation (recombinant human GM-CSF [8]): 123 pM; IC50, inhibition of rhGM-CSF induced IL-8 secretion in U937 cells (recombinant human GM-CSF [8]): 54 pM; Kd (recombinant human GM-CSF [9]): 114 pM; koff (recombinant human GM-CSF [9]): 0.000198 s⁻¹; kon (recombinant human GM-CSF [9]): 1.74e+06 M⁻¹ s⁻¹; EC50 (read off the curve) (recombinant human GM-CSF [10]): ~500 pM; EC50 (read off the curve) (rhesus GM-CSF): ~600 pM |
